In data set [1] the target is TDP-43 RRM1-RRM2 (human, UniProt Q13148 101-265). Description: fluorescence polarization. Background: In fluorescence polarisation assays a small probe gives low polarisation when free and higher when bound to something large.
Data set [2] deals with TDP-43 RRM1 (human, UniProt Q13148 101-191). Description: fluorescence polarization.
Chain of TDP-43 RRM1 (Q13148 101-191): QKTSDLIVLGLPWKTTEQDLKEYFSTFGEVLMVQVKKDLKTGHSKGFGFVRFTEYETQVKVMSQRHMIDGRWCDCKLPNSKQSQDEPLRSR

Chain of TDP-43 RRM1-RRM2 (Q13148 101-265): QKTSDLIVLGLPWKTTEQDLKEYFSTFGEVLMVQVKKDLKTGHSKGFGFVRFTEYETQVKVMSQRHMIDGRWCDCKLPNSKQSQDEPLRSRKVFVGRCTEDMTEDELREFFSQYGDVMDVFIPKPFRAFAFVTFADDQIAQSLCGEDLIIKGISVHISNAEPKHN

By Kd is commonly meant the constant that tells how readily two partners part at equilibrium. High values mean a looser complex, low ones a tighter complex. As for UGUGUGUGUGUG (ssRNA) [(UG)6 RNA], the values for the Kd in data set [1] and in data set [2] were 9.5 ± 1.3 nM and 56.9 ± 2.1 nM, respectively.

The values are drawn from publication PMC7784771.
